The data set is described as follows: soluble on expression in E. coli; label from the status in PepcDB or PDB records.
As to “MSLNRKTPKTTDGLMRHIRDNKGIQINGSTEKNQLRNIGYFHGFKGYNFFLNKEEELNFEKFSELHALYSFDTEIKNLFYKHVMFCETAIKNRLLEIVCVNSGFDLDSLFQKSLTYYKSYSPGSSKYKKHLKNTTRLRRDIYDMIHEHCNSKPYIYHYIHQDRTVPLYAVFELFTLGNLVFFTRCMSQNLNIEAQKQLKLYSPAFDQSKDILGDIIDCMKGLRNAIAHNGVLYDCRFKTGETSNRLKEYLAVKMDIHNLDFDRIIDYLILLILICSGLSYSKAELQRIIRQFEQNLDFLRSKISESTYDKIIGVRARPKLRSLKNFINNLDFYLKTDEGHHHHHH”, the “soluble on expression in E. coli” value is given as “soluble”.
As for “MRQSTLHTRLSTGPGGSMRSSIEIFNIRTRKMRVVWQTPELFEAPNWSPDGKYLLLNSEGLLYRLSLAGDPSPEKVDTGFATICNNDHGISPDGALYAISDKVEFGKSAIYLLPSTGGTPRLMTKNLPSYWHGWSPDGKSFTYCGIRDQVFDIYSMDIDSGVETRLTHGEGRNDGPDYSPDGRWIYFNSSRTGQMQIWRVRVDGSSVERITDSAYGDWFPHPSPSGDKVVFVSYDADVFDHPRDLDVRVQLMDMDGGNVETLFDLFGGQGTMNSPNWSPDGDEFAYVRYFPVE”, the “soluble on expression in E. coli” value is given as “soluble”.
The same measure for “MMRGGMGNMNNMMKQMQKMQKEMAKAQEELGEKTVEGTAGGGMITVIANGHKQILEVKVKEEVVDPEDIEMLQDLVLAATNDALKKADELSNSTMGKFTKGLNLPGGMF”: “soluble”; for “MGSDKIHHHHHHMTQYIYLHGFASSPQSAKAQDIRQRFAQIHTQLTIPDLNAGEFSQLTITRQIQQIAATFPDDSVPITLIGSSLGGLTAAHLGQRYLQVQRLVLLAPAFGFLSHWLPKMGEGAVQSWQQNGYYPVYHYGEGTSLPLSYNFVTDAAQYQEDHIQRPIPTLILHGKHDEVIPITASRDFAHSRPWVELIELDSNHALGNVMEEIWQAISLFCQLPESGKI”: “not soluble”.
The same measure for “MPGFSALSGGDKRQPEVNIGVVGHVDHGKTTLVQALTGVWTMRHSEEIRRGMTIKLGYADGEVWECEGCGFPERFSPEPVCECDPQASASLRRRVSYVDAPGHEILMATMLSGAALMDGALLVVAANEPCPQPQTKEHLVALEIIGIKNIVIVQNKVDVVSRERAKESYQEILNFIKGTIAEGSPIIPVSALKRANIDAVLAAIEKFIPTPPRDLDKPPVMYISRSFDVNRPGTPPERLVGGVVGGSIIQGVFRVGDEIEISPGVAVRKPGGRVEYVRLHTTITSLRFGSIEVEEARPGGLVAIGTQLDPSVTKADNLVGNVVGKPGELPEPLTTLRIEHHLLEKVVGMKEEARVEPIRRGEMLMLSVGTAITLGVVTRAGKDEIEVQLRRPVVTWPKARVALSRRIMGRWRLIGWGLIK”: “soluble”; for “MIKLGWASFSNTEFAQDIFIKFANQFYKQDDAGTILFELKKTLGVNQLDEIEKNKKVIIVNQFQNSLGKFLLFNKENTKRINSLANEHISSFLKKIFRLSGFKDMLIDVQHHKKLQKCLLREIHLLVCLINSNQFSDELMQIIEWYQYLKKHSSKLFVITASSDKKPVIEPTINEYKAIFGEYLSSFHLDLKNNQSNDLFQKLLDQIKIKATSKTSLR”: “soluble”; for “MSQTEPPEDLMQYEAMAQDALRGVVKAALKKAAAPGGLPEPHHLYITFKTKAAGVSGPQDLLSKYPDEMTIVLQHQYWDLAPGETFFSVTLKFGGQPKRLSVPYAALTRFYDPSVQFALQFSAPEIIEDEPEPDPEPEDKANQGASGDEGPKIVSLDQFRKKLEHHHHHH”: “soluble”.
“MGSDKIHHHHHHMAIVNRIALDLAKDFIQVLALDENEQEVFNKKLRSNKVLAKLATLSRTDDCEVAVESCGMSHYWRRECEKLGYKTVALPPRFVKAYLQGEKNDANDARAIAEAASRPNRQTVRLKSIEQQDLALMVNQREGFVQTRTQFSNRLRGQLAEYGILLPKRVGTILQRVPEVLEDDSNALTLQSRDLINRLYQMLRAVDEEVKALDKHLATQAERNEDSQRLMTLPGIGPITATSLLALIGDVSEFKRGRNLSEYLGLVPRQNSSGGKDRLGGITKKGNTKLRTLLVHGARSALRVAQQRHDRLSLWAQDVAKRRGNNVAAVALANKHARIIWAMLKNKEDYRMTAA”: the “soluble on expression in E. coli” value is listed as “not soluble”.
With “MGSDKIHHHHHHMKADLHVHTCLSPCADLLMIPPVVERASGDVQILGIVDHNSAKNVPAFLKMKKLVVPGIEIQTVEDVHVLGFFSDIESALKVTKIVYEHLPSVKHDHEKMGYQLFVDEKGNYTGYEDVPLGFPSDLTLSQAVELIRSFGGIPVYAHVEKRFGVLYQLGFFPDLEIPVAEVVSREGKENAQKKNLRVIVTSDAHFPSDIGRRYIDISGAPNSPEEVLKKILNSEYTLGGVLNW” the entry was “not soluble”.
